Results published in IntAct's records for PubMed 17043237.

B1: Pre-B-cell leukemia transcription factor-interacting protein 1 (Homo sapiens), Q96AQ6-1 (parent)
chain: MASCPDSDNSWVLAGSESLPVETLGPASRMDPESERALQAPHSPSKTDGKELAGTMDGEGTLFQTESPQSGSILTEETEVKGTLEGDVCGVEPPGPGDTVVQGDLQETTVVTGLGPDTQDLEGQSPPQSLPSTPKAAWIREEGRCSSSDDDTDVDMEGLRRRRGREAGPPQPMVPLAVENQAGGEGAGGELGISLNMCLLGALVLLGLGVLLFSGGLSESETGPMEEVERQVLPDPEVLEAVGDRQDGLREQLQAPVPPDSVPSLQNMGLLLDKLAKENQDIRLLQAQLQAQKEELQSLMHQPKGLEEENAQLRGALQQGEAFQRALESELQQLRARLQGLEADCVRGPDGVCLSGGRGPQGDKAIREQGPREQEPELSFLKQKEQLEAEAQALRQELERQRRLLGSVQQDLERSLQDASRGDPAHAGLAELGHRLAQKLQGLENWGQDPGVSANASKAWHQKSHFQNSREWSGKEKWWDGQRDRKAEHWKHKKEESGRERKKNWGGQEDREPAGRWKEGRPRVEESGSKKEGKRQGPKEPPRKSGSFHSSGEKQKQPRWREGTKDSHDPLPSWAELLRPKYRAPQGCSGVDECARQEGLTFFGTELAPVRQQELASLLRTYLARLPWAGQLTKELPLSPAFFGEDGIFRHDRLRFRDFVDALEDSLEEVAVQQTGDDDEVDDFEDFIFSHFFGDKALKKRSGKKDKHSQSPRAAGPREGHSHSHHHHHRG

Variants of: B1
Details: with esr1_human ESR1, P03372
Chain of esr1_human ESR1, P03372 (P03372 whole entry): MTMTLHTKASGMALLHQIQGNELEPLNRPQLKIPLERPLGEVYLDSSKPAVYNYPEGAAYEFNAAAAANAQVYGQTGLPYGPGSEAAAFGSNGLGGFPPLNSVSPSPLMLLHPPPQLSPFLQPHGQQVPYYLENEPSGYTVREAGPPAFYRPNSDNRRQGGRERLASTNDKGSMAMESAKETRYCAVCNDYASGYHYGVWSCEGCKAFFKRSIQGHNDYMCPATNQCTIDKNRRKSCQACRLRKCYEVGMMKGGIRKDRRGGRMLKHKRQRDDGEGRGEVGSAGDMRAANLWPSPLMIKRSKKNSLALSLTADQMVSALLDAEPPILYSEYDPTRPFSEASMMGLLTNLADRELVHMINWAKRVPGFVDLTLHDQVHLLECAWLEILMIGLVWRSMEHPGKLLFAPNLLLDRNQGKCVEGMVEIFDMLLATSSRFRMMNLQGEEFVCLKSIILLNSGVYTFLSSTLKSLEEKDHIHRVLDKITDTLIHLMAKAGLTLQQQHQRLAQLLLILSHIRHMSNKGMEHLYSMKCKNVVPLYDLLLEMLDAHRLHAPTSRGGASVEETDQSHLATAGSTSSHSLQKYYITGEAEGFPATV

Row | effect of a mutation on the interaction | Variant
1 | disrupting interaction strength | L615A;L618A;L619A
